Assay [1] concerns the target T1, IGHV3-21/IGLV3-21^R110 BCR (Homo sapiens, UniProt P80748).
T1 construct: a complete light chain (LC) DNA covering IGLV3-21^R110 were synthesized; expressed in transfected cells; host or cells: murine triple knockout (TKO) pro-/pre-B cells, retroviral spinfection
Description: FACS binding assay on BCR-expressing TKO cells. The settings on record: fluorescently labeled anti-mouse IgG. An excerpt:
(§1) The screening for positive clones was not performed by enzyme linked immunosorbent assay (ELISA) as usual. Since the target structure is a membrane-bound receptor, it is of central importance to validate the binding of the potential antibodies in a cellular system, i.e. while largely preserving the cell physiological states native to this cell type. First, groups of pooled supernatants were examined for binding events using fluorescence activated cell sorting (FACS) analysis. For this purpose different BCR variants were expressed on the surface of a triple knockout (TKO) cell line, which cannot express BCR itself.
(§2) For reconstitution with a ‘BCR of interest’, the corresponding sequence coding for the VH was fused with a human IgM constant segment by polymerase chain reaction (PCR), and heavy (HC) and light (LC) chains were cloned into respective expression vectors each having a CMV promoter. These were introduced into the packaging cell line (Phoenix cell line) by lipofection. After 36 hours of incubation, the virus supernatant was removed and used for spinfection of the TKO cells. BCR expression was determined using anti-IgM and anti-LC antibodies on FACS. For this purpose, some cells were taken and stained with 5 μl antibody each in a total volume of 100 μl in PBS. Both the work to extract the supernatants and the spinfection of the TKO are widely known procedures and known to experts. […]

Assay [2] has as its system wild-type IGLV3-21G110-variant. Description: FACS binding assay on BCR-expressing TKO cells (germline control). The arrangement: species or system human. The following applies: fluorescently labeled anti-mouse IgG.
From the text: as §1, §2

For assay [3], the system named is OCI-LY1 R110 cell line (OCIR110). The experiment in a line: In-vitro cytotoxicity assay (IncuCyte Caspase-3/7), OCI-LY1 R110. The following applies: construct 1: IgG4 hinge spacer; construct 2: additional CH2-CH3 spacer. The format is cell-based, human. Here is the method: Neoepitope (i.e. cancer-specific peptide) engineered cell line OCI-LY1 R110 expressing the IGLV3-21^R110 light chain as part of a BCR with induced R110 point mutation was generated from OCI-LY1 wt cells. First, OCI-LY1 wt cells were cultivated in RPMI 1640 Medium, GlutaMAX™ Supplement (Thermo Fisher, Cat. 61870044) supplemented with 20% (v/v) FBS (Life Technologies, Cat. 10500064) and 1% (v/v) penicillin-streptomycin (10,000 U/mL) (Thermo Fisher, Cat. 15140122) at 37° C. in a humidified atmosphere including 5% CO2. […]
Target cells seeded at 2×10^4 cells/well in a 96-well plate were co-incubated with effector cells at effector-to-target (E: T) ratio 5:1 in complete CTL medium consisting of RPMI 1640 Medium GlutaMAX™ Supplement (Thermo Fisher, Cat. 61870044) supplemented with 10% (v/v) FBS (Life Technologies, Cat. 10500064), 1% (v/v) penicillin-streptomycin (10,000 U/mL) (Thermo Fisher, Cat. 15140122), 50 μM β-mercaptoethanol (Thermo Fisher, Cat. 31350010) and 50 U/mL IL-2 (StemCell, Cat. 78036.1). CAR T cell mediated tumor cell killing was assessed using the IncuCyte@ Caspase-3/7 Green Reagent for Apoptosis (Sartorius, Cat. 4440) according to the manufacturer's instructions. Read out of dead (-green-fluorescent) target cells was performed on an
IncuCyte@ S3 (Sartorius) after 2 to 16 hours or 4 to 36 hours. The killing graphs were calculated by the IncuCyte@ software (version 2022A). […]

Numbering of substitutions follows the chain as printed.

Sequence of wild-type IGLV3-21G110-variant (as listed by the source): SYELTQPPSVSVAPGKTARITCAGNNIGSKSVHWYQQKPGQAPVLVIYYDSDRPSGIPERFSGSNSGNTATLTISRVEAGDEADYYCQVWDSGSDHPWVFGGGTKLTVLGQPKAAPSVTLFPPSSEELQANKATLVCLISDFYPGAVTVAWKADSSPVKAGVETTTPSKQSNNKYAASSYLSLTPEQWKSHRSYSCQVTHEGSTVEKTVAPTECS
Sequence of wild-type IGLV3-21G110-variant (P01871 with tags, fused parts or gaps partner): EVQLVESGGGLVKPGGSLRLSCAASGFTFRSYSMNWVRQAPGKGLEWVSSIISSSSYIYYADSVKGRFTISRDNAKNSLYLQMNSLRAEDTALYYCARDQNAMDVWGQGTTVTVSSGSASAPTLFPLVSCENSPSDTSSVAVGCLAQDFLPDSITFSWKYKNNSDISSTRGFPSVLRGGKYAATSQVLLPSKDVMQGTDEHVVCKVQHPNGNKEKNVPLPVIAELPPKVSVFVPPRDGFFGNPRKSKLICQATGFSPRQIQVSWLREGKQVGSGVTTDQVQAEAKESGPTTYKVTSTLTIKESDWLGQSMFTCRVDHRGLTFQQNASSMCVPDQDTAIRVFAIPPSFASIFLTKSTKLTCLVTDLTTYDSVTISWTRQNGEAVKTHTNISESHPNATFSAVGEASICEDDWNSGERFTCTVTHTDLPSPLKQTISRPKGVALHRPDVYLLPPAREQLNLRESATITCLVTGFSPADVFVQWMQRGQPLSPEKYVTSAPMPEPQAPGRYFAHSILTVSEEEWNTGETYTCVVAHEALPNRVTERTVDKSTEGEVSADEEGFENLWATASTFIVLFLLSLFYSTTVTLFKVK
Sequence of wild-type IGLV3-21G110-variant (P11911 29-220 partner): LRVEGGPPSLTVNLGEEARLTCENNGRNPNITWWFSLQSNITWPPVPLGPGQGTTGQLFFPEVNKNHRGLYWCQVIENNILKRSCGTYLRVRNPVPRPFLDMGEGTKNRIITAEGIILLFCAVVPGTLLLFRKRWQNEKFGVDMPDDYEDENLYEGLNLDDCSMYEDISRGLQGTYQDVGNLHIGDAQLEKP
Sequence of wild-type IGLV3-21G110-variant (P15530 26-228 partner): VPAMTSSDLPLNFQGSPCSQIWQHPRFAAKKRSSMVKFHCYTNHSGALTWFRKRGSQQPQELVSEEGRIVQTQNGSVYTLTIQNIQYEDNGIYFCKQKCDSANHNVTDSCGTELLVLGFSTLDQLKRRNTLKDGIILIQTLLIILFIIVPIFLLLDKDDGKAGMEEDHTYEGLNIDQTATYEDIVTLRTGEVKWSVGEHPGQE
T1 sequence (P80748 with tags, fused parts or gaps V22E/Q35K/G42A/V66I/D68Y/S112G): as the sequence (as listed by the source) above, with G110R counted along it

B1: mAb01-01: murine monoclonal anti-IGLV3-21^R110 antibody, VL SEQ ID NO: 44, VH SEQ ID NO: 45 (antibody, listed as Mus musculus, V domains shown)
VH: QVQLQQSGPGLVQPSQSLSITCTVSGFSLTSYGIHWVRQSPGKGLEWLGVIWRGGGTDSNAAFMSRLSITKDNSKSQVFFKMNSLQADDTAIYYCARSRYDEEESMNYWGQGTSVTVSS
VL: QIVLTQSPASLSASVGETVTITCRASGNIHSYLAWYQQKQGKSPQLLVYNAKTLADGVPSRFSGSGSGTQYSLKINSLQPEDFGSYYCQHFWNTPPTFGAGTKLELK
For B1, the “binding to IGLV3-21^R110-BCRs” value in assay [1] is “high specificity and cross-reactivity”. Besides, in assay [2], the “binding to wild-type IGLV3-21G110-variant” value was “without any detectable binding”.

B2: H1: humanized anti-IGLV3-21^R110 CAR, VL SEQ ID NO: 7, VH SEQ ID NO: 11, scFv SEQ ID NO: 13 (protein)
scFv: EIVLTQSPSSLSASVGDSVTITCRASGNIHSYLAWYQQKPGKAPKLLIYNAKTLADGVPSRFSGSGSGTQYTLTISSLQPEDFATYYCQHFWNTPPTFGAGTKLELKGGGGSGGGGSGGGGSGGGGSQVQLQESGPGLVKPSETLSLTCTVSGFSLTSYGIHWIRQSPGRGLEWIGVIWRGGGTDSNAAFMSRVTISVDTSKSQVSLKLGSVTAADTAIYYCARSRYDEEESMNYWGQGTSVTVSS
In the case of B2, in assay [3], the “killing capacity, CAR construct 1 versus CAR construct 2” value is reported as “remarkably higher in CAR construct 1 than in CAR construct 2”.

B3: H2: humanized anti-IGLV3-21^R110 CAR, VL SEQ ID NO: 7, VH SEQ ID NO: 12, scFv SEQ ID NO: 14 (protein)
scFv: B2 scFv with V194I, V198R, S203T
Take B3: the “killing capacity, CAR construct 1 versus CAR construct 2” value in assay [3] was “remarkably higher in CAR construct 1 than in CAR construct 2”.

These data come from US20260035459A1, “HUMANIZED CHIMERIC ANTIGEN RECEPTORS TARGETING THE B-CELL RECEPTOR OF CHRONIC LYMPHOCYTIC LEUKEMIA AND USES THEREOF” (AVA LIFESCIENCE GMBH, priority 2022, published 2026).
